Article PMC5206748, “Disruption of cell adhesion by an antibody targeting the cell-adhesive intermediate (X-dimer) of human P-cadherin” (Scientific Reports, 2017)

T1: human P-cadherin MEC1 (additional Met + residues 1-129) (Homo sapiens)
T1 construct: numbers count on: the mature protein; source: E. coli Rosetta2 (DE3), purified (Ni-NTA, SUMO tag cleaved with Ulp1, SEC)
T1 chain: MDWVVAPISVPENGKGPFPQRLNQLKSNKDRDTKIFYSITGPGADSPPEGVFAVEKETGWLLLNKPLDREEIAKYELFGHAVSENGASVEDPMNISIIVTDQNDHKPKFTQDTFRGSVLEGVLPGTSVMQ


Assays:
Details in all cases: both partners purified
[1] = biological target: T1, human P-cadherin MEC1 (additional Met + …); assay: SPR; Biacore T200; MEC1 immobilised on a CM5 chip by amine coupling (~250 RU); scFv as analyte, 0.49-62.5 nM; 25 °C; 10 mM HEPES, 150 mM NaCl, 3 mM CaCl2, pH 7.5, 0.05% Tween-20; global fitting
[2] = biological target: T2, human P-cadherin MEC12 K14E (additional Met + residues 1-213) (Homo sapiens, point mutant); assay: ITC; iTC200; antibody in the cell (15-30 μM), P-cadherin construct in the syringe (150-300 μM); 15 °C; one-site binding model
T2 construct: human P-cadherin, residues 1-213 with K14E; numbers count on: the mature protein; also called monomer construct; source: E. coli Rosetta2 (DE3), purified (Ni-NTA, SUMO tag cleaved with Ulp1, SEC)

[3] = biological target: T3, human P-cadherin EC12 K14E (residues 1-213) (Homo sapiens, UniProt P22223, point mutant); assay: as above
T3 construct: human P-cadherin, residues 1-213 with K14E; numbers count on: the mature protein; also called strand-swap dimer construct; source: E. coli Rosetta2 (DE3), purified (Ni-NTA, SUMO tag cleaved with Ulp1, SEC)

[4] = biological target: T2, human P-cadherin MEC12 K14E (additional …); assay: SPR; scFv (100 nM) captured on anti-His6-tag antibody immobilised on a CM5 chip; P-cadherin construct as analyte (1.25-20 nM strand-swap dimer, 6.25-100 nM monomer); global fitting; the paper puts the lower KD for the strand-swap dimer down to an avidity effect
[5] = biological target: T3, human P-cadherin EC12 K14E (residues …); assay: as above
human E-cadherin EC12 [6] = biological target: T4, human E-cadherin EC12 (Homo sapiens, UniProt P12830); assay: SEC; the solution left in the ITC cell (antibody 25 μM titrated with human E-cadherin EC12 250 μM at 30 °C) injected on Superose 12 10/300 GL; 0.5 mL/min; 25 °C; 10 mM HEPES, 150 mM NaCl, 3 mM CaCl2, pH 7.5
T4 construct: human E-cadherin, domains EC1-EC2; also called E-cad EC12; source: E. coli Rosetta2 (DE3), purified (Ni-NTA, SUMO tag cleaved with Ulp1, SEC)

[7] = biological target: T5, human P-cadherin MEC12 (additional Met + residues 1-213) (Homo sapiens); assay: ITC; iTC200; antibody in the cell (15-30 μM), P-cadherin construct in the syringe (150-300 μM); 15 °C; one-site binding model
T5 construct: numbers count on: the mature protein; also called X-dimer construct; source: E. coli Rosetta2 (DE3), purified (Ni-NTA, SUMO tag cleaved with Ulp1, SEC)

human E-cadherin EC12 [8] = biological target: T6, human E-cadherin EC12 (Homo sapiens, UniProt P12830); assay: ITC + SEC; antibodies (25 μM) in the cell titrated with human E-cadherin EC12 (250 μM) in the syringe, 30 °C; the solution left in the cell was then run on Superose 12 in 10 mM HEPES, 150 mM NaCl, 3 mM CaCl2, pH 7.5
T6 construct: E-cadherin (cadherin-1), human, extracellular domains EC1-EC2; source: E. coli Rosetta2 (DE3), SUMO fusion, Ni-NTA, SUMO cleaved with Ulp1, SEC

human P-cadherin MEC1 = biological target: T7, human P-cadherin MEC1 (Homo sapiens, UniProt P22223); assay: SPR; MEC1 immobilised on a CM5 chip by amine coupling (~250 RU); antibodies as analyte 0.49-62.5 nM; 25 °C; 10 mM HEPES, 150 mM NaCl, 3 mM CaCl2, pH 7.5, 0.05% Tween-20; global fitting
T7 construct: additional Met before the N-terminus; P-cadherin (cadherin-3), human, extracellular domain EC1; source: E. coli Rosetta2 (DE3), SUMO fusion, Ni-NTA, SUMO cleaved with Ulp1, SEC

human P-cadherin MEC12 = biological target: T8, human P-cadherin MEC12 (human, UniProt P22223); assay: ITC; antibodies (15-30 μM) in the cell titrated with cadherins (150-300 μM); 15 °C; one-site binding model
T8 construct: additional Met at the N-terminus of EC12; P-cadherin (cadherin-3), human, extracellular domains EC1-EC2; Fast exchange between monomer and X-dimer; also called X-dimer construct; source: E. coli Rosetta2 (DE3), SUMO fusion, Ni-NTA, SUMO cleaved with Ulp1, SEC

T2 sequence (chain, as listed by the source point mutant | K14E K14E): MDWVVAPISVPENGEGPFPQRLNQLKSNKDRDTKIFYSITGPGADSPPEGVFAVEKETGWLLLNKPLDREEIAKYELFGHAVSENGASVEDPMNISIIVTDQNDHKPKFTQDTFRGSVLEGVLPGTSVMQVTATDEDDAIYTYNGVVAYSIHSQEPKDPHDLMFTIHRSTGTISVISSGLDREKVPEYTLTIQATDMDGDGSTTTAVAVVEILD

| Binder | Kd [1] [nM] | koff [1] [s⁻¹] | kon [1] [M⁻¹ s⁻¹] | stoichiometry N [2] | stoichiometry N [3] | Kd [4] [nM] | koff [4] [s⁻¹] | kon [4] [M⁻¹ s⁻¹] | Kd [5] [nM] | koff [5] [s⁻¹] | kon [5] [M⁻¹ s⁻¹] | binding result (human E-cadherin EC12 [6]) | stoichiometry N [7] | binding result (human E-cadherin EC12 [8]) | Kd (human P-cadherin MEC1) [nM] | stoichiometry N (human P-cadherin MEC12) |
| --- | --- | --- | --- | --- | --- | --- | --- | --- | --- | --- | --- | --- | --- | --- | --- | --- |
| TSP7 single-chain Fv (anti-human P-cadherin antibody) (scFv, V domains shown, VH of TSP7; flexible (Gly4-Ser)3 peptide linker between VH and VL; VL of TSP7; Construct pelB-VH-GS-linker-VL-His6 in pRA2; Residue numbers run through the whole scFv (Asp229 and Arg234 lie in the VL); also called TSP7 (WT); TSP7 WT; not shown: His6, C-terminal, kept) VH: QVQLQESGPELVKPGASVKMSCKASGYSFTAYNMHWVKQSHGKSLEWIGFIDPYSGIITYNQTFKGKATLTVDKSSSTAYMQLNSLTSEDSAVYYCARRGYYDGGFDYWGQGTTLTVSS VL: DIQMTQTTSSLSASLGDRVTISCRASQDITNYLNWYQQKPDGTVKLLIYYTSRLHSGVPSRFSGSGSGTDYSLTISNLEQEDIATYFCQQDSKHPRTFGGGTKLEIK | 8.7 | 0.026 | 3e+06 | 0.74 | 0.71 | 63 | 0.03 | 480000 | 0.24 | 0.00015 | 620000 | no binding |  |  |  |  |
| TSP7 S77R single-chain Fv (scFv, V domains shown, as the VH of Dm1 (TSP7, PDB 5JYL) with S77R; flexible (Gly4-Ser)3 peptide linker between VH and VL; as the VL of Dm1 (TSP7, PDB 5JYL); source: purified to homogeneity in a soluble monomeric form; not shown: His6, C-terminal, kept) VH: QVQLQESGPELVKPGASVKMSCKASGYSFTAYNMHWVKQSHGKSLEWIGFIDPYSGIITYNQTFKGKATLTVDKSSRTAYMQLNSLTSEDSAVYYCARRGYYDGGFDYWGQGTTLTVSS VL: DIQMTQTTSSLSASLGDRVTISCRASQDITNYLNWYQQKPDGTVKLLIYYTSRLHSGVPSRFSGSGSGTDYSLTISNLEQEDIATYFCQQDSKHPRTFGGGTKLEIK |  |  |  |  |  | 71 | 0.032 | 450000 | 0.53 | 0.00039 | 730000 |  |  |  |  |  |
| TSP11 single-chain Fv (anti-human P-cadherin antibody) (scFv, V domains shown, VH of TSP11; flexible (Gly4-Ser)3 peptide linker between VH and VL; VL of TSP11; Construct pelB-VH-GS-linker-VL-His6 in pRA2) VH: QVQLQQPGTELVKPGASVKLSCKASGYTFTRYWINWVKQRPQGGLEWIGNIYPGSNITNYNEKFKNKATLTVDTSSNTAYMQLSSLTSDDSAVYYCAREGIYDGYFPLFPYWGQGTLVTVSA VL: ENVLTQSPAIMAASPGEKVTMTCSASSSVSSGNFHWYQQKPGTSPKLWIYRTSNLASGVPARFSGSGSGTSYSLTISSMEAEDAATYYCQQWSGYPWTFGGGTKLEIK | 14 | 0.0039 | 280000 | 0.61 | 0.61 |  |  |  |  |  |  | no binding | 0.71 |  |  |  |
| TSP7 (anti-human P-cadherin antibody, scFv format) (scFv, V domains shown, VH of TSP7 (antibody from mice immunised with human P-cadherin EC1-EC5); flexible (Gly4-Ser)3 peptide linker; VL of TSP7; Construct pelB-VH-GS-linker-VL-His6 in pRA2; also called TSP7 WT; not shown: His6, C-terminal, kept) VH: QVQLQESGPELVKPGASVKMSCKASGYSFTAYNMHWVKQSHGKSLEWIGFIDPYSGIITYNQTFKGKATLTVDKSSSTAYMQLNSLTSEDSAVYYCARRGYYDGGFDYWGQGTTLTVSS VL: DIQMTQTTSSLSASLGDRVTISCRASQDITNYLNWYQQKPDGTVKLLIYYTSRLHSGVPSRFSGSGSGTDYSLTISNLEQEDIATYFCQQDSKHPRTFGGGTKLEIK |  |  |  |  |  |  |  |  |  |  |  |  |  | no binding | ~10 | 1.5 |
| TSP11 (anti-human P-cadherin antibody, scFv format) (scFv, V domains shown, VH of TSP11 (antibody from mice immunised with human P-cadherin EC1-EC5); flexible (Gly4-Ser)3 peptide linker; VL of TSP11; Construct pelB-VH-GS-linker-VL-His6 in pRA2; not shown: His6, C-terminal, kept) VH: QVQLQQPGTELVKPGASVKLSCKASGYTFTRYWINWVKQRPQGGLEWIGNIYPGSNITNYNEKFKNKATLTVDTSSNTAYMQLSSLTSDDSAVYYCAREGIYDGYFPLFPYWGQGTLVTVSA VL: ENVLTQSPAIMAASPGEKVTMTCSASSSVSSGNFHWYQQKPGTSPKLWIYRTSNLASGVPARFSGSGSGTSYSLTISSMEAEDAATYYCQQWSGYPWTFGGGTKLEIK |  |  |  |  |  |  |  |  |  |  |  |  |  | no binding | ~10 |  |
